Laboratory results reported in article PMC10516938, “Conformational dynamics of cohesin/Scc2 loading complex are regulated by Smc3 acetylation and ATP binding” (Nature Communications, 2023).

How the values were obtained:
Smc3^QQ R1008I Q67C = molecular target: T1, Smc3^QQ R1008I Q67C (S. cerevisiae, UniProt P47037 1-1230, Q67C | K112Q | K113Q | R1008I); experiment: cross-linking; in vivo BMOE cross-link of cysteine pairs in yeast cells arrested in late G1 by non-degradable Sic1(9m); Scc1-PK immunoprecipitated, western blot, band intensities quantified; details: partners not purified
T1 construct: Smc3, S. cerevisiae; also called smc3-QQ Q67C with R1008I; source: S. cerevisiae W303, late G1 arrested cells, whole-cell extract
T1 sequence (looked up): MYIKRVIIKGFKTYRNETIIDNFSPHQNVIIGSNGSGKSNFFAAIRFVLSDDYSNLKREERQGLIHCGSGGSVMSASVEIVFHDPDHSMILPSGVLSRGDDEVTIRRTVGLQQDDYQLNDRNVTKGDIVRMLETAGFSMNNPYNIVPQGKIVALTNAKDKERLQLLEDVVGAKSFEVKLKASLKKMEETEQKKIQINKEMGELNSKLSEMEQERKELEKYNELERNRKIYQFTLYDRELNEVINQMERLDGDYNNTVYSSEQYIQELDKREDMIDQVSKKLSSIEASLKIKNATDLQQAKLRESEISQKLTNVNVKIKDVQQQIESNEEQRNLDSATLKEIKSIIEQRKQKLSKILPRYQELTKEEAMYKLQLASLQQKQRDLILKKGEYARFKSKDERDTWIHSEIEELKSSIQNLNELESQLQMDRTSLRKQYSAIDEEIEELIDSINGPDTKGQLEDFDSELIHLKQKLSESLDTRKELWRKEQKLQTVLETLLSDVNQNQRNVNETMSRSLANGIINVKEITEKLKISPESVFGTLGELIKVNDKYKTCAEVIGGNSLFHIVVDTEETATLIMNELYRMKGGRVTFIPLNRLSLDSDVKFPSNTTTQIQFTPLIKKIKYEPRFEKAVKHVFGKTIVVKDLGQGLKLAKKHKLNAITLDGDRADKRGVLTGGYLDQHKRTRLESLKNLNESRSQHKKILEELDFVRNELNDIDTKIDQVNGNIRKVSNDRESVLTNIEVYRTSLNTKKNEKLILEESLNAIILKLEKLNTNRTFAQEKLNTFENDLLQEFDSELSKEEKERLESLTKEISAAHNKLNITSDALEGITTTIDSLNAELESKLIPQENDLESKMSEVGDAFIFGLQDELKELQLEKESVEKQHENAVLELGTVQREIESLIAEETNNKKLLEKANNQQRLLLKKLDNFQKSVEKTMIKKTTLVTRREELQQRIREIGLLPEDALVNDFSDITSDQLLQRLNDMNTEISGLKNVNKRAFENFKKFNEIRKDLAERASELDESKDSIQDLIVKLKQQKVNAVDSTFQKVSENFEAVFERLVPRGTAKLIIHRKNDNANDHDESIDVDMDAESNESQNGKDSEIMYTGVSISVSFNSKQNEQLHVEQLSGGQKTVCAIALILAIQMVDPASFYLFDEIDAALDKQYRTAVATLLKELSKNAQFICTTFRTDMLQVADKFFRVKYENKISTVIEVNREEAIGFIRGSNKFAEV

[1] = molecular target: T2, Smc3^QQ W483R R1008I Q67C (S. cerevisiae, UniProt P47037 1-1230, Q67C | K112Q | K113Q | W483R | R1008I); experiment: as above; details: partners not purified
T2 construct: Smc3, S. cerevisiae; also called smc3-QQ Q67C with R1008I and W483R; source: S. cerevisiae W303, late G1 arrested cells, whole-cell extract
T2 sequence (looked up): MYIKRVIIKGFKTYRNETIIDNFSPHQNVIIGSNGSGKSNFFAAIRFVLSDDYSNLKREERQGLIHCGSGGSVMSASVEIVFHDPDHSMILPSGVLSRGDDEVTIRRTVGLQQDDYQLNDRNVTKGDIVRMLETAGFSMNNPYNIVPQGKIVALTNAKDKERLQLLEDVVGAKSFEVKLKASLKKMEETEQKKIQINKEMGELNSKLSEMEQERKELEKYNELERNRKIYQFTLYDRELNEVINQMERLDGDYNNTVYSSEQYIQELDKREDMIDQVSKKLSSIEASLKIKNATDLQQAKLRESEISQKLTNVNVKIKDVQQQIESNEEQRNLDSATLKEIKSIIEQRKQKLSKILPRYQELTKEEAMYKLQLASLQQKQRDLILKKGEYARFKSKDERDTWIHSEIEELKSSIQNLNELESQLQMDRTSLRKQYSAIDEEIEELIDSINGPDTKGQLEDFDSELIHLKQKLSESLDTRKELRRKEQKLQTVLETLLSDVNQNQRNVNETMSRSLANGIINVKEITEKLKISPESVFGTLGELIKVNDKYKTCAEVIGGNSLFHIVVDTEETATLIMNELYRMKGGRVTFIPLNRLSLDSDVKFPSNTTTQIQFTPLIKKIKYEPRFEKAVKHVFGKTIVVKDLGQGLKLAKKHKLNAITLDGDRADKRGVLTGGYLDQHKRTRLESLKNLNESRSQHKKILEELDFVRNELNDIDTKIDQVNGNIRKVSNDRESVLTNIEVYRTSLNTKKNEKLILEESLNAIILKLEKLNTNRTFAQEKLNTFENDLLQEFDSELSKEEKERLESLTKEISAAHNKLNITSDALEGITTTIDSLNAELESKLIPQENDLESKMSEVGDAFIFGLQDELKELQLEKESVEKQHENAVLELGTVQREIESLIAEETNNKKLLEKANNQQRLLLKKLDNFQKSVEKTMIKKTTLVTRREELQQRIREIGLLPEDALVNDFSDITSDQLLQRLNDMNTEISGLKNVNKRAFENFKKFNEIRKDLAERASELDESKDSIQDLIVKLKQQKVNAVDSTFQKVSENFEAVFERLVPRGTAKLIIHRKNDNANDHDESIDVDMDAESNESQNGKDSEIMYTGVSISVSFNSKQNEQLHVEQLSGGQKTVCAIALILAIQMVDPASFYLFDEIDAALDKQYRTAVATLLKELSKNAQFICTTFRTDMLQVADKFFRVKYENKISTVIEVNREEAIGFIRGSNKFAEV

B1: Scc2 T1175C (natural protein, S. cerevisiae, UniProt Q04002 1-1493, looked up)
chain: MSYPGKDKNIPGRIIEALEDLPLSYLVPKDGLAALVNAPMRVSLPFDKTIFTSADDGRDVNINVLGTANSTTSSIKNEAEKERLVFKRPSNFTSSANSVDYVPTNFLEGLSPLAQSVLSTHKGLNDSINIEKKSEIVSRPEAKHKLESVTSNAGNLSFNDNSSNKKTKTSTGVTMTQANLAEQYLNDLKNILDIVGFDQNSAEIGNIEYWLQLPNKKFVLTTNCLTKLQMTIKNITDNPQLSNSIEITWLLRLLDVMVCNIKFSKSSLKMGLDDSMLRYIALLSTIVLFNIFLLGKNDSNLHRESYIMEPVNFLSDLIESLKILTIEYGSLKIEFDTFQEALELLPKYIRNGPFLDDNVTAKLVYIFSDLLMNNDIEATTNIQFQSFWDNVKRISSDILVSLFGSFDQQRGFIIEELLSHIEKLPTKRIQKKLRKVGNQNIYITDFTFTLMSMLENINCYSFCNQMKDIAPENIDLLKNEYKKQEEFLFNIVEHINDTILERFFKNPSALRYVIDNFVQDLLLLISSPQWPVTEKILSSLLKRLLSVYSPSMQVSANIETICLQLIGNIGSTIFDIKCSTRDHEDNNLIKMINYPETLPHFFKSFEECIAYNETIKCRRSATRFLWNLRLGTILILEEYTKDAKEQIITVDNELKKILEQIKDGGLGPELENREADFSTIKLDYFSILHAFELLNLYDPYLKLILSLLAKDKIKLRSTAIKCLSMLASKDKVILSNPMVKETIHRRLNDSSASVKDAILDLVSINSSYFEFYQQINNNYNDDSIMVRKHVLRINEKMYDETNDIVTKVYVIARILMKIEDEEDNIIDMARLILLNRWILKVHEVLDQPEKLKEISSSVLLVMSRVAIMNEKCSQLFDLFLNFYLLNKEAHSKEAYDKITHVLTILTDFLVQKIVELNSDDTNEKNSIVDKQNFLNLLAKFADSTVSFLTKDHITALYPYMVSDEKSDFHYYILQVFRCTFEKLANFKQKFLYDLETTLLSRLPKMNVREIDEAMPLIWSVATHRHDTARVAKACSSCLSHLHPYINKANNEEAAIVVDGKLQRLIYLSTGFARFCFPKPSNDKIAFLQEGETLYEHITKCLLVLSKDKITHVIRRVAVKNLTKLCGNHPKLFNSRHVLHLLDKEFQSDQLDIKLVILESLYDLFLLEERKSVRNCGVNSTLSSNSILKKKLLKTNRVEFANDGVCSALATRFLDNILQLCLLRDLKNSLVAIRLLKLILKFGYTNPSHSIPTVIALFASTSQYIRHVAYELLEDLFEKYETLVFSSLSRGVTKAIHYSIHTDEKYYYKHDHFLSLLEKLCGTGKKNGPKFFKVLKRIMQSYLDDITDLTSTNSSVQKSIFVLCTNISNITFVSQYDLVSLLKTIDLTTDRLKEVIMDEIGDNVSSLSVSEEKLSGIILIQLSLQDLGTYLLHLYGLRDDVLLLDIVEESELKNKQLPAKKPDISKFSAQLENIEQYSSNGKLLTYFRKHVKDT
notes: Scc2, S. cerevisiae; source: S. cerevisiae W303, in vivo, whole-cell extract
Smc3^QQ R1008I Q67C
  crosslink relative to wild-type Smc3: ~40%
[1]
  crosslinking efficiency relative to wild type: ~70%
